Test results from patent publication US20240091307A1, “COMBINATION THERAPIES OF AMUC_1100 AND IMMUNE CHECKPOINT MODULATORS FOR USE IN TREATING CANCERS” (COMMBIO THERAPEUTICS CO., LTD., priority 2020, published 2024).

How the values were obtained:
[1] = test system: proteases trypsin and α-chymotrypsin; assay: Protease digestion stability (trypsin and α-chymotrypsin, SDS-PAGE, Coomassie blue); type: in vitro ADME; conditions: trypsin 0.01 mg/ml and α-chymotrypsin 0.01 mg/ml, 37° C., 30 min; versus wild type; FIG. 3A
Description: Recombinant Amuc_1100 wild type (WT) and mutant protein are digested by proteases trypsin (0.01 mg/ml) and α-chymotrypsin (0.01 mg/ml) at […] for 30 min. The samples are subjected to SDS-PAGE gel electrophoresis and Coomassie blue staining. Lane A: Amuc_1100 (31-317, Y289A) without proteases; Lane B: Amuc_1100 (31-317, Y289A) with proteases; Lane C: Amuc_1100 (31-317, WT) without proteases; Lane D: Amuc_1100 (31-317, WT) with proteases; MW: molecular weight marker (KD).)
Some mutants of the […] (31-317) may reduce protein degradation by proteases. The amino acid sequence (SEQ ID NO: 146) and nucleotide sequence (SEQ ID NO: 147) of Amuc_1100 (31-317, Y289A) with 6×His tag at the C-terminus expressed by the plasmid described above (FIG. 1) were shown in FIG. 2. The recombinant Amuc_1100 (31-317) protein and mutant protein (31-317, Y289A) were digested by proteases trypsin (0.01 mg/ml) and α-chymotrypsin (0.01 mg/ml) at 37° C. for 30 min. The samples were then subjected to SDS-PAGE gel electrophoresis and Coomassie blue staining.

[2] = test system: spontaneous breast cancer in MMTV-PyVT transgenic C57BL/6 female mice; assay: Spontaneous breast cancer model, tumor growth rate and H&E staining; type: in vivo; conditions: Amuc_1100 proteins 3 μg/kg oral gavage daily 4 weeks; anti-PD-1 10 mg/kg i.v. every three days 3 weeks; FIG. 4, FIG. 5
Description: The MMTV-PyVT transgenic C57BL/6 female mice were used to develop spontaneous breast cancer. Mice at age of 9.5 weeks were randomly divided into 6 groups with 4-5 mice in each group and were subjected to agent treatment. The mice in the control group were treated with PBS by oral gavage daily for 4 weeks, plus PBS i.v. injection daily after one week of oral gavage for 3 weeks. […] All the spontaneously developed tumors were monitored. Tumor sizes were measured twice every week. The health status of mice was closely monitored. Tumor growth rate of each tumor in mouse following agent treatment was analyzed. […]

[3] = Body weight gain in mouse model; type: in vivo, mice; conditions: 3 μg/kg oral gavage daily for 4 weeks; compared to PBS control group
Description: Mice at age of 9.5 weeks were randomly divided into 3 groups with 4-5 mice in each group and were subjected to agent treatment. The mice in the control group and test groups were treated with PBS, Amuc_1100 (31-317), or Amuc_1100 (31-317, Y289A) (3 μg/kg) by oral gavage daily for 4 weeks, respectively. The body weight of each mouse in each group was measured twice every week.

TLR2 [4] = molecular target: T1, TLR2 (Homo sapiens, UniProt O60603); assay: TLR2 reporter gene assay in HEK293 cells (QUANTI-Blue); type: cell-based; parameters: host or cells: HEK293; conditions: HEK293 cells expressing human TLR2 and reporter gene; FIG. 3B
Description: HEK293 cells expressing human TLR2 receptor and its reporter gene (InvivoGen, hkb-htlr2) were seeded in a 96-well plate and treated by […] (31-317) or mutant recombinant Amuc_1100 (31-317, Y289A). The reporter gene activity was detected by QUANTI-Blue™ (InvivoGen, rep-qbs2), and the cell viability was detected by CellTiterGlo (Promega, G7573) by following the reagent kits' instruction. The results were shown in FIG. 3B (Pam3CSK4 is the positive control for TLR2 ligand). […] All agents show no significant impact on cell viability.

TLR2 [5] = molecular target: T1, TLR2; assay: TLR2 reporter assay of Amuc_1100 secreted from engineered EcN; type: cell-based; parameters: expressed in transfected cells; host or cells: HEK293; conditions: HEK293/TLR2 reporter cells, 24 hours, colorimetric; protein isolated from CBT1108 culture media; FIG. 17
Description: The genetically engineered bacteria EcN strain CBT1108 obtained in Example 6 were cultured, and the culture media was collected at late exponential growth stage. The […] (31-317) protein was isolated from the culture media by his-tag antibody-containing resin column. The endotoxin was removed from the isolated Amuc_1100 (31-317) protein.
The Amuc_1100 (31-317) activity was tested by TLR2 reporter assay. Specifically, HEK293/TLR2 reporter cells were stimulated in 96-well plate with certain amount of protein for 24 hours, the reporter enzyme's substrate was added into the cell media and the activity was measured by colorimetric method.

T1 sequence (O60603 21-784): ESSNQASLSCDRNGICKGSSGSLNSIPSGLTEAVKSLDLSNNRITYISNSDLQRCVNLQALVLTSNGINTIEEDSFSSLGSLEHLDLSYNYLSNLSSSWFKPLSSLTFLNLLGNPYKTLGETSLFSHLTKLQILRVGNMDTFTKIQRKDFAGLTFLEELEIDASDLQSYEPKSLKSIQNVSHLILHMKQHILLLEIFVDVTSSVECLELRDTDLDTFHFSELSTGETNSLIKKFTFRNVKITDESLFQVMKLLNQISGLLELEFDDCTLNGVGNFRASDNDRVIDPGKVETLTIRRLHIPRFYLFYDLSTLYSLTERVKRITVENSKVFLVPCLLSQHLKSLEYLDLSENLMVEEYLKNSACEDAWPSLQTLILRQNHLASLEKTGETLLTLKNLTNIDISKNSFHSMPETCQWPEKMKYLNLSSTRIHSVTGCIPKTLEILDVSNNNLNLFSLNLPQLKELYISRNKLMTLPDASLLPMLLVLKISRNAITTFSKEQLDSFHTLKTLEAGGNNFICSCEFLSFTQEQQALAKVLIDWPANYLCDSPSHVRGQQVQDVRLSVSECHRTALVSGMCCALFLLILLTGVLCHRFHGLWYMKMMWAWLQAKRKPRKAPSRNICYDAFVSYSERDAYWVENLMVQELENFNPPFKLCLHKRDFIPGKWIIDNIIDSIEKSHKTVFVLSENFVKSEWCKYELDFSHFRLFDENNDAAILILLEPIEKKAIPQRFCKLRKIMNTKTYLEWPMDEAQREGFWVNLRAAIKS

Row | Molecule | resistance to enzyme digestion [1] | tumor growth inhibition [2] | changes in body weights [3] | EC50 for TLR2 activation (TLR2 [4]) [µg/mL] | TLR2 signal stimulation (TLR2 [5])
1 | Amuc_1100 (31-317, Y289A): Amuc_1100 (31-317) mutant protein with single point mutation Y289A, numbering relative to SEQ ID NO: 1 (protein) MIVNSKRSELDKKISIAAKEIKSANAAEITPSRSSNEELEKELNRYAKAVGSLETAYKPFLASSALVPTTPTAFQNELKTFRDSLISSCKKKNILITDTSSWLGFQVYSTQAPSVQAASTLGFELKAINSLVNKLAECGLSKFIKVYRPQLPIETPANNPEESDEADQAPWTPMPLEIAFQGDRESVLKAMNAITGMQDYLFTVNSIRIRNERMMPPPIANPAAAKPAAAQPATGAASLTPADEAAAPAAPAIQQVIKPAMGKEQVFVQVSLNLVHFNQPKAQEPSED | more resistant to enzyme digestion compared to wild type Amuc_1100 protein | partially inhibited tumor growth | no significant changes in body weights | 0.951 | 
2 | secreted Amuc_1100 (31-317) from genetically engineered EcN: Amuc_1100 protein isolated from culture media of EcN strain CBT1108 by his-tag antibody resin, endotoxin removed (protein) MIVNSKRSELDKKISIAAKEIKSANAAEITPSRSSNEELEKELNRYAKAVGSLETAYKPFLASSALVPTTPTAFQNELKTFRDSLISSCKKKNILITDTSSWLGFQVYSTQAPSVQAASTLGFELKAINSLVNKLAECGLSKFIKVYRPQLPIETPANNPEESDEADQAPWTPMPLEIAFQGDRESVLKAMNAITGMQDYLFTVNSIRIRNERMMPPPIANPAAAKPAAAQPATGAASLTPADEAAAPAAPAIQQVIKPYMGKEQVFVQVSLNLVHFNQPKAQEPSED |  |  |  |  | stimulated TLR2 signal
3 | Amuc_1100 (31-317): Naturally-occurring fragment (residues 31-317) of Akkermansia muciniphila outer-membrane protein Amuc_1100; recombinant protein (protein) MIVNSKRSELDKKISIAAKEIKSANAAEITPSRSSNEELEKELNRYAKAVGSLETAYKPFLASSALVPTTPTAFQNELKTFRDSLISSCKKKNILITDTSSWLGFQVYSTQAPSVQAASTLGFELKAINSLVNKLAECGLSKFIKVYRPQLPIETPANNPEESDEADQAPWTPMPLEIAFQGDRESVLKAMNAITGMQDYLFTVNSIRIRNERMMPPPIANPAAAKPAAAQPATGAASLTPADEAAAPAAPAIQQVIKPYMGKEQVFVQVSLNLVHFNQPKAQEPSED |  | partially inhibited tumor growth | no significant changes in body weights | 0.535 | 
